According to article PMC11169033:

Substrate: CN(C)c1ccc(/C=C/c2cc[n+](C)cc2)cc1
Assay: saturation of fluorescent uptake in hOCT2-HEK293 cells (affinity, control condition)
Type: cell-based, Homo sapiens

B1: human organic cation transporter 2 (hOCT2) (Homo sapiens) (protein)
chain: MPTTVDDVLEHGGEFHFFQKQMFFLLALLSATFAPIYVGIVFLGFTPDHRCRSPGVAELSLRCGWSPAEELNYTVPGPGPAGEASPRQCRRYEVDWNQSTFDCVDPLASLDTNRSRLPLGPCRDGWVYETPGSSIVTEFNLVCANSWMLDLFQSSVNVGFFIGSMSIGYIADRFGRKLCLLTTVLINAAAGVLMAISPTYTWMLIFRLIQGLVSKAGWLIGYILITEFVGRRYRRTVGIFYQVAYTVGLLVLAGVAYALPHWRWLQFTVSLPNFFFLLYYWCIPESPRWLISQNKNAEAMRIIKHIAKKNGKSLPASLQRLRLEEETGKKLNPSFLDLVRTPQIRKHTMILMYNWFTSSVLYQGLIMHMGLAGDNIYLDFFYSALVEFPAAFMIILTIDRIGRRYPWAASNMVAGAACLASVFIPGDLQWLKIIISCLGRMGITMAYEIVCLVNAELYPTFIRNLGVHICSSMCDIGGIITPFLVYRLTNIWLELPLMVFGVLGLVAGGLVLLLPETKGKALPETIEEAENMQRPRKNKEKMIYLQVQKLDIPLN
notes: hOCT2 stably expressed in HEK293 cells
Km: 20.5 µM
